Source: patent US20230293647A1 (AUTOLUS, published 2023)

Tests used:
Test in all cases: cell microarray
TTYH2 = molecular target: T1, TTYH2 (human, UniProt Q9BSA4)
T1 sequence (looked up): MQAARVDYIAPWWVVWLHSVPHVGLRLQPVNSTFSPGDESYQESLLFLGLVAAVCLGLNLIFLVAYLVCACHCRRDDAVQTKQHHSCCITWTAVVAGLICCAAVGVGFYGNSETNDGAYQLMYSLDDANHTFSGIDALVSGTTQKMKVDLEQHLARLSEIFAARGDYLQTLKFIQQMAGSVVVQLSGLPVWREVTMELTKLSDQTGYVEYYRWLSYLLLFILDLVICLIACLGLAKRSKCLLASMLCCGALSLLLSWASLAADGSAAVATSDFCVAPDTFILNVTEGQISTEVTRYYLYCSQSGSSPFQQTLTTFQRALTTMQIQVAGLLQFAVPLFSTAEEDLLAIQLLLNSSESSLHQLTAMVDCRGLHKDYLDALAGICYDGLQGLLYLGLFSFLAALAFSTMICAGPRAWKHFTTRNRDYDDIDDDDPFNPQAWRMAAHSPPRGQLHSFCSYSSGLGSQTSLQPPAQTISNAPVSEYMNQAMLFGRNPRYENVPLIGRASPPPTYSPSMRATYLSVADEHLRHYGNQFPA

TTYH3 V1 = molecular target: T2, TTYH3 V1 (human, UniProt Q9C0H2)
T2 sequence (looked up): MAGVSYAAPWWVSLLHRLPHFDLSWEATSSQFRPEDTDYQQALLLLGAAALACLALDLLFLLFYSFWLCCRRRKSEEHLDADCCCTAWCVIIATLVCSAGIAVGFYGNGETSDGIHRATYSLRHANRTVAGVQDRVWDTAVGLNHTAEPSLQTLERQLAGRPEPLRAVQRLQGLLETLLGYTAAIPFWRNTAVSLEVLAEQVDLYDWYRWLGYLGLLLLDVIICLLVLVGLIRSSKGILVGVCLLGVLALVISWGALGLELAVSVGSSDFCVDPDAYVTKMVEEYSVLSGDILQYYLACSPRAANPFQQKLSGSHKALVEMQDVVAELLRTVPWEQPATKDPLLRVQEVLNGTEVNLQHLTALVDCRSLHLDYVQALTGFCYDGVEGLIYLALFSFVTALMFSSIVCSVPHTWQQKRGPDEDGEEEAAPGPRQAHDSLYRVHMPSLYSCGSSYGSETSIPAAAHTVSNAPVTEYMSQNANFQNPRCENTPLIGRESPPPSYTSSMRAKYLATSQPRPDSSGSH

SIGLEC14 = molecular target: T3, SIGLEC14 (human, UniProt Q08ET2)
T3 sequence (looked up): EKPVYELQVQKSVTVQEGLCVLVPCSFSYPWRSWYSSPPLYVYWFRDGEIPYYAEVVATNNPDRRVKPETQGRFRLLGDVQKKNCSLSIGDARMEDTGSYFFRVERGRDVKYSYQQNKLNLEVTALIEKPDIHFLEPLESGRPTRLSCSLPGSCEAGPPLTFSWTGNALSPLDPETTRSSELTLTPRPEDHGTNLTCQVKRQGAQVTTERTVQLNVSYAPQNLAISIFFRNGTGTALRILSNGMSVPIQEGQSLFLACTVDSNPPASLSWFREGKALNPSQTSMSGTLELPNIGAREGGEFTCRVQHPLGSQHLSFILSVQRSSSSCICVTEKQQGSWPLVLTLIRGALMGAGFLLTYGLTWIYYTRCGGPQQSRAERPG

SLC26A4 = molecular target: T4, SLC26A4 (human, UniProt O43511)
T4 sequence (looked up): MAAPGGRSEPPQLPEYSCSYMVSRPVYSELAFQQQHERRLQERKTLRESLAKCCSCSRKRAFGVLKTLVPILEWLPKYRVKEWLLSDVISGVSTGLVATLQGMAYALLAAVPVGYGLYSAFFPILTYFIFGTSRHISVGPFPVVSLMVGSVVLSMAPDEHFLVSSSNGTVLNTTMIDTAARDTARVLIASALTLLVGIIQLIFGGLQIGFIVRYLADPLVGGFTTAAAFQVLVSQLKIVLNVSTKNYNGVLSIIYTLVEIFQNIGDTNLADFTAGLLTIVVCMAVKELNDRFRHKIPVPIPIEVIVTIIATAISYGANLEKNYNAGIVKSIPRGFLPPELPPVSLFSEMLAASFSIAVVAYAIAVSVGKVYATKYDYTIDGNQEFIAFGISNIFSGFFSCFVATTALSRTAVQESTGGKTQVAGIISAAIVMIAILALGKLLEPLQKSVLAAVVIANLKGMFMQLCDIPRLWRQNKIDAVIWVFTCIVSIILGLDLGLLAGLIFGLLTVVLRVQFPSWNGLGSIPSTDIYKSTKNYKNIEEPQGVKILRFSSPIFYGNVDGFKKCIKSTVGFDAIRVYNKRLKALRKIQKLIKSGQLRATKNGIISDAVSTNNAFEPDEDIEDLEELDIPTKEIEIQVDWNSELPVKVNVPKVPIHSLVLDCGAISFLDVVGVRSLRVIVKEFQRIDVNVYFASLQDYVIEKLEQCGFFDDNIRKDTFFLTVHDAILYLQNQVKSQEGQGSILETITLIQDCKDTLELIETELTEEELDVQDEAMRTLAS

SIGLEC15 = molecular target: T5, SIGLEC15 (human, UniProt Q6ZMC9)
T5 sequence (looked up): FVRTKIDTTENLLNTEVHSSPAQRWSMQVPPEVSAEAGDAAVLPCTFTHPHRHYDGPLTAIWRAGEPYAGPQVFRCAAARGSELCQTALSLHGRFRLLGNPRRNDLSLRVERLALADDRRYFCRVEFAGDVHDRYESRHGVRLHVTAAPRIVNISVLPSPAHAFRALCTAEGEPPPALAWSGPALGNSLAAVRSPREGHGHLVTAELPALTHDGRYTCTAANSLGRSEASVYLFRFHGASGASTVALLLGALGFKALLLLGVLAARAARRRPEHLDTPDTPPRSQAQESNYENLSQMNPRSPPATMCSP

PRCD = molecular target: T6, PRCD (human, UniProt Q00LT1)
T6 sequence (looked up): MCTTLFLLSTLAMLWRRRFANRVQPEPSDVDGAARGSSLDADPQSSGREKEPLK

CXCL12 = CXCL12 (human, UniProt P48061)
Chain of CXCL12 (P48061 22-89 limits assumed): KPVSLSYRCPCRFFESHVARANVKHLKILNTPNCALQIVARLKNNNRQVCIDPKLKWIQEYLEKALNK

LGALS1 = LGALS1 (human, UniProt P09382)
Chain of LGALS1 (P09382 2-135 limits assumed): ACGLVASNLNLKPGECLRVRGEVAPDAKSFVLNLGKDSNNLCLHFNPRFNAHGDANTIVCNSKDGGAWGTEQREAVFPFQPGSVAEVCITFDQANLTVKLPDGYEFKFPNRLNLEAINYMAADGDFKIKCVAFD

EGFR = EGFR (human, UniProt P00533)
[1] = molecular target: SARS-CoV-2 full length Spike expressed on cells (SARS-CoV-2, UniProt P0DTC2 14-1273)

Measured: binding result

B1: Fc LALA-PG only construct with the ACE2 domain omitted (other)
chain: EPKSCDKTHTCPPCPAPEAAGGPSVFLFPPKPKDTLMISRTPEVTCVVVDVSHEDPEVKFNWYVDGVEVHNAKTKPREEQYNSTYRVVSVLTVLHQDWLNGKEYKCKVSNKALGAPIEKTISKAKGQPREPQVYTLPPSREEMTKNQVSLTCLVKGFYPSDIAVEWESNGQPENNYKTTPPVLDSDGSFFLYSKLTVDKSRWQQGNVFSCSVMHEALHNHYTQKSLSLSPGK
notes: also called control Fc (LALA-PG)
no binding: TTYH2 | TTYH3 V1 | SIGLEC14 | SLC26A4 | SIGLEC15 | PRCD | CXCL12 | LGALS1 | EGFR | [1]
